# According to patent US20240158497A1 (published 2024):
# T1: Macaca Fascicularis GP130 extracellular domain expressed with a C-terminal myc-myc-hexahistidine tag (Macaca fascicularis, UniProt P40189 23-619 (human entry))
# T1 construct: also called mfGP130-MMH; mfGP130-mmH
# T1 chain: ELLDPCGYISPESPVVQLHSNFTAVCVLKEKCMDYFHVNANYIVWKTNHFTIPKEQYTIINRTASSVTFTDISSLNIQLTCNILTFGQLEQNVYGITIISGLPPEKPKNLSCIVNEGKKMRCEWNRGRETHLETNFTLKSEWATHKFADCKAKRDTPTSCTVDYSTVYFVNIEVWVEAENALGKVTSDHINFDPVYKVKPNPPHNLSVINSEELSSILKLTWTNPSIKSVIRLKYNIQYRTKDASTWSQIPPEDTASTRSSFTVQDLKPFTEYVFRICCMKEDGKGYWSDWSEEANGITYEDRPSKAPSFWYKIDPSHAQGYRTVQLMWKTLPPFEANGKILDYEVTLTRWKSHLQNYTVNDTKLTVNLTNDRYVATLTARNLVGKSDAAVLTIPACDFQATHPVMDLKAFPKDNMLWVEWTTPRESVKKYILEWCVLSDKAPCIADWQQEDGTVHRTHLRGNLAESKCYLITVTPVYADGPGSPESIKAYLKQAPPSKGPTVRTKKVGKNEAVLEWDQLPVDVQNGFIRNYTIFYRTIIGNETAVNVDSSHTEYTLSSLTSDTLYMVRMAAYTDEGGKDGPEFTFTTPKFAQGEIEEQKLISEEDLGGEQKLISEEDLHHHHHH
# T2: Macaca fascicularis GP130 extracellular domain expressed with a C-terminal myc-myc-hexahistidine tag (Macaca fascicularis, UniProt P40189 23-619 (human entry))
# T2 construct: Monomeric reagent; also called mfGP130-mmH; mfGP130-MMH
# T2 chain: T1 chain
# B1: bsAb19152D (bispecific antibody, V domains shown)
# VH 1: QVQLVESGGGVVQPGRSLRLSCTASGFTFSSYAMYWVRQAPGKGLEWVSVIYYDGSYKYYADSVKGRFTISRDNSKNTLYLQMDSLRAEDTAVYYCASYNWNYWYFDFWGRGTLVTVSS
# VH 2: EVQLVQSGAEVKKPGESLKISCKGSGYSFTSYWIDWVRQMPGKGLEWMGIIYPDDSDTRYSPSFQGQVTMSVDKSISTAYLQWSSLKASDTAIYYCARHERGIVEAGTDYYYYYGMDVWGQGTTVTVSS
# VL: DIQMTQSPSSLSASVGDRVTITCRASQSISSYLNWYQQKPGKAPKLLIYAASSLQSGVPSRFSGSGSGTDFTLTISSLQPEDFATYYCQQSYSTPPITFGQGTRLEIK
# notes: LEPR x GP130 bispecific with common light chain
# B2: bsAb19156D (bispecific antibody, V domains shown)
# VH 1: B1 VH 1
# VH 2: QVQLVESGGGLVKPGGSLRLSCAASGFTFSDYYMTWIRQTPGKGLDWVSYISSSGTNKYNADSVKGRFTISRDNAKNSLYLQMNSLRAEDTAVYYCVRDPPWGMDVWGQGTTVTVSS
# VL: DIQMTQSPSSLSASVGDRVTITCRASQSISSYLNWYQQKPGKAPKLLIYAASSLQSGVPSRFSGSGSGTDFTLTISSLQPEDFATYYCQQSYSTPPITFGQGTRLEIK
# notes: as for B1
# B3: bsAb19153D (bispecific antibody, V domains shown)
# VH 1: B1 VH 1
# VH 2: QVQLVQSGAEVMKPGASVKVSCRASGYTFSSYDINWVRQAPGQGLEWMGWISTATGNTNYPQKVQGRVTMTTDTSTNTAYMELRSLRSDDTAVYYCTREGNSKGWLDPWGQGTLVTVSS
# VL: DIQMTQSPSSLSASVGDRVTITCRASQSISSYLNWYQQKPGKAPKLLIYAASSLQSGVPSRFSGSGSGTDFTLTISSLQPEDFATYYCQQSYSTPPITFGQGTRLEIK
# notes: as for B1
# B4: bsAb19155D (bispecific antibody, V domains shown)
# VH 1: B1 VH 1
# VH 2: EVQLVESGGGLVQPGGSLRLSCAASGFTFSTYWMNWVRQAPGKGLEWVANIKEDGSEKYYVDSVKGRFTISRDNAKNSLYLQMNSLRAEDTAVYYCAREGFGVVTYIWGQGTMVTVSS
# VL: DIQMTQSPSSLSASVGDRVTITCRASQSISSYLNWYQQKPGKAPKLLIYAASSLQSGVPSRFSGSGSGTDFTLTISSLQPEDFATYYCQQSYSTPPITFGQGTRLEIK
# notes: as for B1
# B5: bsAb19757D (bispecific antibody, V domains shown)
# VH 1: EVQLVESGGGLVQPGGSLRLSCVASGFTFNKYDMHWVRQTTGKGLEWVSGIDTDGDTYYPGSVKGRFTISRENAENSLYLQMNGLRVGDTAVYYCARWPWSGFYGAFDIWGQGTMVTVSS
# VH 2: EVQLVESGGGVVRPGGSLRLSCTASGFTFDDYGMSWVRQAPGKGLEWVSGINWNGGRTEYADAVKGRFIISRDNAKNSLYLQMNSLRAEDTALYFCARTELRWDYWGQGTLVTVSS
# VL: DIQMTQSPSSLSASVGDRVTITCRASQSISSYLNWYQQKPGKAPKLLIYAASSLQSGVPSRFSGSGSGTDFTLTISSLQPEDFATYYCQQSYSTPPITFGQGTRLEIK
# notes: as for B1
# B6: bsAb19758D (bispecific antibody, V domains shown)
# VH 1: B5 VH 1
# VH 2: EVQLVESGGGLVQSGGSLRLSCAASGFTFSRYEMNWVRQAPGKGLEWVAYISNTGTTRDYSDSVKGRFTISRDNAKNSLYLQMSSLRVEDTAVYYCVREKFSGTSDWFDPWGQGTLVTVSS
# VL: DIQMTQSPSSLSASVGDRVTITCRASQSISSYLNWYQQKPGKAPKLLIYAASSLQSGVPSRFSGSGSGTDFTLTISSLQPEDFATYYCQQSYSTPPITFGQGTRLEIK
# notes: as for B1
# B7: MAb16618 (antibody, V domains shown)
# VH: QVQLQESGPGLVKPSETLSLTCTVSGGSISNYYWTWIRQPPGKGLEWIGHISNSGTTNYNPSLKSRVTISVDTSKNQFSLKLTSVTAADTAVYYCARLPLGIAAVDTDYYYYFGMDVWGQGTTVTVSS
# VL: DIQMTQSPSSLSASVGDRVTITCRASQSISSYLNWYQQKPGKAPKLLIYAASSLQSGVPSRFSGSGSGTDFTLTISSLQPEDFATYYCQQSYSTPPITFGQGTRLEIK
# B8: MAb16614 (antibody, V domains shown)
# VH: QVQLVESGGGVVQPGGSLRLSCAASGFTFSTYDIHWVRQAPGKGLEWVAVISFDGSNRNYGDSVKGRFTISRDNSDNTLFLEMNNLRFEDTAVYYCAKEGYGVDFQHWGQGTLVTVSS
# VL: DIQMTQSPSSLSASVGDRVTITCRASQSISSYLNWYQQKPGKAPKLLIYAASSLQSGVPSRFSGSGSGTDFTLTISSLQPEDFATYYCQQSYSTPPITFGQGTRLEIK
# Molecular target: T1, Macaca Fascicularis GP130 extracellular …
# Assay: SPR, bsAb captured by anti-hFc, 25C
# Method: (§1) Equilibrium dissociation constants (KD values) for LEPR and GP130 binding to purified anti-LEPR/GP130 bispecific antibodies were determined using a real-time surface plasmon resonance biosensor using a Biacore 4000 instrument. All binding studies were performed in 10 mM HEPES, 150 mM NaCl, 3 mM EDTA, and 0.05% v/v Surfactant Tween-20, pH 7.4 (HBS-ET) running buffer at 25° C. and 37° C. The Biacore sensor surface was first derivatized by amine coupling with a monoclonal mouse anti-human Fc antibody (GE, #BR-1008-39) to capture anti-LEPR/GP130 bispecific antibodies. […] Different concentrations of LEPR or GP130 reagents were first prepared in HBS-ET running buffer (100 nM-3.7 nM; 3-fold serial dilution) and were injected over anti-human Fc captured anti-LEPR/GP130 bispecific antibody surface for 4 minutes at a flow rate of 30 μL/minute, while the dissociation of bispecific antibody bound LEPR or GP130 reagent was monitored for 10 minutes in HBS-ET running buffer. Kinetic association (kₐ) and dissociation (kd) rate constants were determined by fitting the real-time binding sensorgrams to a 1:1 binding model with mass transport limitation using Scrubber 2.0c curve-fitting software. Binding dissociation equilibrium constants (KD) and dissociative half-lives (t ½) were calculated from the kinetic rate constants as: […]
100 nM mfGP130-MMH Bound (RU),Kd,koff,kon,t½,Binder
52 RU,18.8 nM,0.00553 s⁻¹,295000 M⁻¹ s⁻¹,2.1 min,B1
30 RU,22.1 nM,0.00162 s⁻¹,73300 M⁻¹ s⁻¹,7 min,B2
23 RU,1.73 nM,0.000396 s⁻¹,229000 M⁻¹ s⁻¹,29 min,B3
7 RU,186 nM,0.0184 s⁻¹,98500 M⁻¹ s⁻¹,0.6 min,B4
15 RU,188 nM,0.0204 s⁻¹,108000 M⁻¹ s⁻¹,0.6 min,B5
46 RU,16.5 nM,0.00507 s⁻¹,307000 M⁻¹ s⁻¹,2.3 min,B6

# Molecular target: T3, human GP130 extracellular domain expressed with a C-terminal myc-myc-hexahistidine tag (human, UniProt P40189 23-619)
# T3 construct: also called hGP130-MMH; hGP130-mmH
# Assay: SPR, bsAb captured by anti-hFc, 25C
# Method: as §1
100 nM hGP130-MMH Bound (RU),Kd,koff,kon,t½,Binder
35 RU,57.4 nM,0.0113 s⁻¹,196000 M⁻¹ s⁻¹,1 min,B1
27 RU,24.7 nM,0.00221 s⁻¹,89500 M⁻¹ s⁻¹,5 min,B2
24 RU,1.62 nM,0.000419 s⁻¹,258000 M⁻¹ s⁻¹,28 min,B3
7 RU,–,–,–,–,B4
16 RU,196 nM,0.0218 s⁻¹,112000 M⁻¹ s⁻¹,0.5 min,B5
51 RU,14.6 nM,0.00457 s⁻¹,313000 M⁻¹ s⁻¹,2.5 min,B6

# Molecular target: T2, Macaca fascicularis GP130 extracellular …
# Assay: SPR (Biacore 4000), mAb captured on anti-human Fc, 25 C
# Method: (§2) Equilibrium dissociation constant (KD) for different GP130 reagents binding to purified anti-GP130 monoclonal antibodies were determined using a real-time surface plasmon resonance based Biacore 4000 biosensor. All binding studies were performed in 10 mM HEPES, 150 mM NaCl, 3 mM EDTA, and 0.05% v/v Surfactant Tween-20, pH 7.4 (HBS-ET) running buffer at 25° C. and 37° C. The Biacore sensor surface was first derivatized by amine coupling with a monoclonal mouse anti-human Fc antibody (GE, #BR-1008-39) to capture anti-GP130 monoclonal antibodies. […] Reagents tagged with “mmH” are monomeric, whereas reagents tagged with “mFc” are dimeric. Thus, for example, “hGP130-mmH” is also referred to as “monomeric human GP130,” and “hGP130-mFc” is also referred to as “dimeric human GP130.”
# (§3) The association rate (k a) and dissociation rate (kd) were determined by fitting the real-time binding sensorgrams to a 1:1 binding model with mass transport limitation using Scrubber 2.0c curve-fitting software. Binding dissociation equilibrium constant (KD) and dissociative half-life (t ½) were calculated from the kinetic rates as: […]
100 nM Ag Bound,Kd,koff,kon,t½,Binder
40 RU,166 nM,0.0621 s⁻¹,374000 M⁻¹ s⁻¹,0.2 min,B7
16 RU,139 nM,0.0104 s⁻¹,74400 M⁻¹ s⁻¹,1.1 min,B8

# Molecular target: T1, Macaca Fascicularis GP130 extracellular …
# Assay: SPR, bsAb captured by anti-hFc, 37C
# Method: as §1
100 nM mfGP130-MMH Bound (RU),Kd,koff,kon,t½,Binder
51 RU,51.6 nM,0.0177 s⁻¹,342000 M⁻¹ s⁻¹,0.7 min,B1
26 RU,87.6 nM,0.00767 s⁻¹,87500 M⁻¹ s⁻¹,1.5 min,B2
32 RU,4.33 nM,0.00123 s⁻¹,284000 M⁻¹ s⁻¹,9 min,B3
3 RU,–,–,–,–,B4
14 RU,450 nM,0.0598 s⁻¹,133000 M⁻¹ s⁻¹,0.2 min,B5
45 RU,18.2 nM,0.0073 s⁻¹,402000 M⁻¹ s⁻¹,1.6 min,B6

# Molecular target: T3, human GP130 extracellular domain …
# Assay: SPR, bsAb captured by anti-hFc, 37C
# Method: as §1
100 nM hGP130-MMH Bound (RU),Kd,koff,kon,t½,binding result,Binder
28 RU,89.1 nM,0.0363 s⁻¹,407000 M⁻¹ s⁻¹,0.3 min,–,B1
24 RU,95 nM,0.00797 s⁻¹,83900 M⁻¹ s⁻¹,1.4 min,–,B2
33 RU,3.95 nM,0.00126 s⁻¹,319000 M⁻¹ s⁻¹,9 min,–,B3
4 RU,–,–,–,–,no binding (tested: 100 nM),B4
16 RU,358 nM,0.0635 s⁻¹,178000 M⁻¹ s⁻¹,0.2 min,–,B5
50 RU,16.7 nM,0.00747 s⁻¹,448000 M⁻¹ s⁻¹,1.5 min,–,B6

# Molecular target: T2, Macaca fascicularis GP130 extracellular …
# Assay: SPR (Biacore 4000), mAb captured on anti-human Fc, 37 C
# Method: as §2, §3
100 nM Ag Bound,Kd,koff,kon,t½,Binder
26 RU,90.3 nM,0.12 s⁻¹,1.33e+06 M⁻¹ s⁻¹,0.1 min,B7
8 RU,72.2 nM,0.0267 s⁻¹,370000 M⁻¹ s⁻¹,0.4 min,B8

# Molecular target: T4, human GP130 extracellular domain expressed with a C-terminal myc-myc-hexahistidine tag (human, UniProt P40189 23-619)
# T4 construct: Monomeric reagent; also called hGP130-mmH; hGP130-MMH
# Assay: as above
# Method: as §2, §3
100 nM Ag Bound,Kd,koff,kon,t½,Binder
36 RU,103 nM,0.112 s⁻¹,1.08e+06 M⁻¹ s⁻¹,0.1 min,B7
10 RU,121 nM,0.03 s⁻¹,247000 M⁻¹ s⁻¹,0.4 min,B8
